The values that follow come from US7291332B2, “Inflammatory mediator antagonists” (SmithKline Beecham Corporation, priority 1998, dated 2007).

The test concerns HepG2 B6 cells (STAT-sPAP reporter). Put plainly: OSM-GST mutant driven sPAP production in HepG2 B6 assay. Particulars: for 'Potency': relative to wild type, from Mean %. In kind it is cell-based, human. The protocol: HepG2 B6 cells were plated into 96 well plates to a final concentration of 3×10^4 cells per well in 100 μl of media (DMEM (Sigma), 10% HI FCS, 1% non-essential amino acids, 2 mM Glutamine, 500 μg ml^−1 G418, (all from Life Technologies)). Cells were allowed to equilibrate for 48 hours. Putative anti-OSM solid compounds were made up to a stock dilution of 20 mM in DMSO and serially diluted 1:3 in DMSO. This was then further diluted in HepG26B assay media, this is as above media but with 1% heat inactivated FCS, low alkaline phosphatase activity (Life Technologies) substituted for 10% HI FCS. Compounds were diluted 1:3 from a top concentration of […] to a final concentration of 0.09 μM in a final concentration of 1% DMSO. (That is 200, 66.67, 22.22, 7.41, 2.47, 0.82, 0.27, 0.09 and 0 μM). The old media was removed from the wells and replaced with diluted compound also containing 2 ng ml^−1 OSM (R&D Systems), cells were incubated for a further 20 hours. Each dilution was performed in triplicate. 20 μl of media was removed from each well and assayed for sPAP activity using pNPP (p-Nitrophenyl phosphate; Sigma), as a substrate. Endogenous alkaline phosphatase is blocked with L-homoarginine. Optical density of substrate is read at 405-650 nm. Concentration of compound is plotted against OD as a measure of sPAP produced and can be analysed to determine IC50 values.
The assay described in Example 7b above was employed. OSM-GST mutants were diluted to a concentration of 100 ng ml^−using the known concentration of intact OSM mutants generated in Example 9b. A wild type OSM-GST was included for control purposes. Dilutions were made in HepG2 B6 media with 1% heat inactivated FCS, low alkaline phosphatase activity. Serial 1:3 dilutions were then made. (100; 33.33; 11.11; 3.7; 1.23; 0.4 ng ml^−1). 3×10^4 HepG2 B6 were dispensed into individual well of a 96 well plate in 100 μl of media. Cells were allowed to equilibrate for 48 hours. Media was then removed and replaced with 100 μl of diluted OSM-GST mutant. Cells were incubated for a further 20 hours. Each dilution was performed in triplicate. 20 μl of media was removed and assayed for sPAP using pNPP as a substrate. Endogenous ALP was blocked with L-homoarginine. O.D. was read at 405-650 nm. The experiment was repeated twice.

Regarding “wild type: wild type human OSM-GST fusion protein [reference compound]”, the “Expt 1 EC50” value was found to be 0.024 µg/mL and the “Expt 2 EC50” value amounted to 0.032 µg/mL.

B1: (4) Y10A: OSM-GST fusion, alanine for Tyr 10 (protein)
chain: AAIGSCSKEARVLLGQLQKQTDLMQDTSRLLDPYIRIQGLDVPKLREHCRERPGAFPSEETLRGLGRRGFLQTLNATLGCVLHRLADLEQRLPKAQDLERSGLNIEDLEKLQMARPNILGLRNNIYCMAQLLDNSDTAEPTKAGRGASQPPTPTPASDAFQRKLEGCRFLHGYHRFMHSVGRVFSKWGESPNRSRR
modifications: left off: a dimerising Fc or GST; large carriers; small tags and cut ends
For B1, the “Expt 1 EC50” value came out at 0.0324 µg/mL, the “Expt 2 EC50” value came to 0.082 µg/mL and the “'Potency'” value is given as “LESS (>120% Less potent than wild type)”.

B2: (16) M113A: OSM-GST fusion, alanine for Met 113 (protein)
chain: AAIGSCSKEYRVLLGQLQKQTDLMQDTSRLLDPYIRIQGLDVPKLREHCRERPGAFPSEETLRGLGRRGFLQTLNATLGCVLHRLADLEQRLPKAQDLERSGLNIEDLEKLQAARPNILGLRNNIYCMAQLLDNSDTAEPTKAGRGASQPPTPTPASDAFQRKLEGCRFLHGYHRFMHSVGRVFSKWGESPNRSRR
modifications: left off: a dimerising Fc or GST; large carriers; small tags and cut ends
For B2, the “Expt 1 EC50” value was found to be 0.0256 µg/mL, the “Expt 2 EC50” value turned out to be 0.025 µg/mL and the “'Potency'” value is recorded as “EQUAL (80-120% Equal potency)”.

B3: (15) D22: OSM-GST fusion, alanine for Asp 22 (protein)
chain: AAIGSCSKEYRVLLGQLQKQTALMQDTSRLLDPYIRIQGLDVPKLREHCRERPGAFPSEETLRGLGRRGFLQTLNATLGCVLHRLADLEQRLPKAQDLERSGLNIEDLEKLQMARPNILGLRNNIYCMAQLLDNSDTAEPTKAGRGASQPPTPTPASDAFQRKLEGCRFLHGYHRFMHSVGRVFSKWGESPNRSRR
modifications: left off: a dimerising Fc or GST; large carriers; small tags and cut ends
In the case of B3, the “Expt 1 EC50” value was 0.0367 µg/mL, the “Expt 2 EC50” value amounted to 0.016 µg/mL and the “'Potency'” value was “EQUAL (80-120% Equal potency)”.

B4: (17) P116A: OSM-GST fusion, alanine for Pro 116 (protein)
chain: AAIGSCSKEYRVLLGQLQKQTDLMQDTSRLLDPYIRIQGLDVPKLREHCRERPGAFPSEETLRGLGRRGFLQTLNATLGCVLHRLADLEQRLPKAQDLERSGLNIEDLEKLQMARANILGLRNNIYCMAQLLDNSDTAEPTKAGRGASQPPTPTPASDAFQRKLEGCRFLHGYHRFMHSVGRVFSKWGESPNRSRR
modifications: left off: a dimerising Fc or GST; large carriers; small tags and cut ends
As to B4, the “Expt 1 EC50” value is 0.025 µg/mL, the “Expt 2 EC50” value came out at 0.015 µg/mL and the “'Potency'” value is “MORE (<80% More potent)”.

B5: (10) L17A: OSM-GST fusion, alanine for Leu 17 (protein)
chain: AAIGSCSKEYRVLLGQAQKQTDLMQDTSRLLDPYIRIQGLDVPKLREHCRERPGAFPSEETLRGLGRRGFLQTLNATLGCVLHRLADLEQRLPKAQDLERSGLNIEDLEKLQMARPNILGLRNNIYCMAQLLDNSDTAEPTKAGRGASQPPTPTPASDAFQRKLEGCRFLHGYHRFMHSVGRVFSKWGESPNRSRR
modifications: left off: a dimerising Fc or GST; large carriers; small tags and cut ends
As to B5, the “Expt 1 EC50” value turned out to be 0.0727 µg/mL, the “Expt 2 EC50” value was found to be 0.056 µg/mL and the “'Potency'” value is reported as “LESS (>120% Less potent than wild type)”.

B6: (5) R11A: OSM-GST fusion, alanine for Arg 11 (protein)
chain: AAIGSCSKEYAVLLGQLQKQTDLMQDTSRLLDPYIRIQGLDVPKLREHCRERPGAFPSEETLRGLGRRGFLQTLNATLGCVLHRLADLEQRLPKAQDLERSGLNIEDLEKLQMARPNILGLRNNIYCMAQLLDNSDTAEPTKAGRGASQPPTPTPASDAFQRKLEGCRFLHGYHRFMHSVGRVFSKWGESPNRSRR
modifications: left off: a dimerising Fc or GST; large carriers; small tags and cut ends
As to B6, the “Expt 1 EC50” value was 0.0286 µg/mL, the “Expt 2 EC50” value came to 0.0277 µg/mL and the “'Potency'” value was “EQUAL (80-120% Equal potency)”.

B7: (7) L14A: OSM-GST fusion, alanine for Leu 14 (protein)
chain: AAIGSCSKEYRVLAGQLQKQTDLMQDTSRLLDPYIRIQGLDVPKLREHCRERPGAFPSEETLRGLGRRGFLQTLNATLGCVLHRLADLEQRLPKAQDLERSGLNIEDLEKLQMARPNILGLRNNIYCMAQLLDNSDTAEPTKAGRGASQPPTPTPASDAFQRKLEGCRFLHGYHRFMHSVGRVFSKWGESPNRSRR
modifications: left off: a dimerising Fc or GST; large carriers; small tags and cut ends
As to B7, the “Expt 1 EC50” value amounted to 0.0194 µg/mL, the “Expt 2 EC50” value was 0.0249 µg/mL and the “'Potency'” value was “MORE (<80% More potent)”.

B8: (12) K19A: OSM-GST fusion, alanine for Lys 19 (protein)
chain: AAIGSCSKEYRVLLGQLQAQTDLMQDTSRLLDPYIRIQGLDVPKLREHCRERPGAFPSEETLRGLGRRGFLQTLNATLGCVLHRLADLEQRLPKAQDLERSGLNIEDLEKLQMARPNILGLRNNIYCMAQLLDNSDTAEPTKAGRGASQPPTPTPASDAFQRKLEGCRFLHGYHRFMHSVGRVFSKWGESPNRSRR
modifications: left off: a dimerising Fc or GST; large carriers; small tags and cut ends
On to B8, for which the “Expt 1 EC50” value was 0.0236 µg/mL, the “Expt 2 EC50” value stood at 0.0119 µg/mL and the “'Potency'” value is on record as “MORE (<80% More potent)”.

B9: (8) G15A: OSM-GST fusion, alanine for Gly 15 (protein)
chain: AAIGSCSKEYRVLLAQLQKQTDLMQDTSRLLDPYIRIQGLDVPKLREHCRERPGAFPSEETLRGLGRRGFLQTLNATLGCVLHRLADLEQRLPKAQDLERSGLNIEDLEKLQMARPNILGLRNNIYCMAQLLDNSDTAEPTKAGRGASQPPTPTPASDAFQRKLEGCRFLHGYHRFMHSVGRVFSKWGESPNRSRR
modifications: left off: a dimerising Fc or GST; large carriers; small tags and cut ends
Turning to B9, the “Expt 1 EC50” value came to 0.021 µg/mL, the “Expt 2 EC50” value worked out at 0.0178 µg/mL and the “'Potency'” value is listed as “MORE (<80% More potent)”.

B10: (14) T21A: OSM-GST fusion, alanine for Thr 21 (protein)
chain: AAIGSCSKEYRVLLGQLQKQADLMQDTSRLLDPYIRIQGLDVPKLREHCRERPGAFPSEETLRGLGRRGFLQTLNATLGCVLHRLADLEQRLPKAQDLERSGLNIEDLEKLQMARPNILGLRNNIYCMAQLLDNSDTAEPTKAGRGASQPPTPTPASDAFQRKLEGCRFLHGYHRFMHSVGRVFSKWGESPNRSRR
modifications: left off: a dimerising Fc or GST; large carriers; small tags and cut ends
As for B10, the “Expt 1 EC50” value stood at 0.017 µg/mL, the “Expt 2 EC50” value came out at 0.0105 µg/mL and the “'Potency'” value was “MORE (<80% More potent)”.

B11: (11) Q18A: OSM-GST fusion, alanine for Gln 18 (protein)
chain: AAIGSCSKEYRVLLGQLAKQTDLMQDTSRLLDPYIRIQGLDVPKLREHCRERPGAFPSEETLRGLGRRGFLQTLNATLGCVLHRLADLEQRLPKAQDLERSGLNIEDLEKLQMARPNILGLRNNIYCMAQLLDNSDTAEPTKAGRGASQPPTPTPASDAFQRKLEGCRFLHGYHRFMHSVGRVFSKWGESPNRSRR
modifications: left off: a dimerising Fc or GST; large carriers; small tags and cut ends
Turning to B11, the “Expt 1 EC50” value is 0.0202 µg/mL, the “Expt 2 EC50” value amounted to 0.0217 µg/mL and the “'Potency'” value is recorded as “MORE (<80% More potent)”.
